# Assay results published in the DeepSol protein solubility set.
# Assay: soluble on expression in E. coli; label from the status in PepcDB or PDB records
row,Sequence,soluble on expression in E. coli
1,MDILVLRVDVPKEGFARKLGAHETVFAADDGAVGKVQQLVEVLLRHERDFDEADGCRLKNIAVVLQGILRNNAALFEAVDDLRPRQQQCHRAACLSPHFQPLCPNIAPIAEKQPFGGVFFGQHQPLSQGFSIETDGFAVITFAYQPAAFFAETHKPKIFLNTLLRRRHQMQPFIAFLRAQIFPIQPKRLVSADNVQHIFGQVAGKSFDDDIGNRRGINICRIGMPSADMNILMNAGNIGQIRAKRTQGGHIVRPQMHLPTEFAVQNTGEPPRNADVAEIVDDLAKNPTDKRRSIHRNNGNGLKRAKIVEQIHNQQNNRNKQQHSLTFQIKLLFQMMLDGVEKDEFKQKRRFAGKDDAVDQMLEFVFGRIGGENGKRRQRDEADGKPADKQVSGHCKAFKKAKRHYRPKRTPCLTDAPEMPSEALPQENAAPPNL,not soluble
2,MDIRLEDEQIKVGDTLLPGVYEGMEVTGDVRSDEEELQSGKRVVHYSYNPTTIRLNLKLLNDADGTPEEKLATIQKVFRPPSQTKPPTYKLVSSHAKARGIGQVMFIRFRSQDTNASDIITVSLEFQETESTTVSVQKVKANTGSGQQYTVKKGDTLWALAKKFNTTVEAIAKANNIANVNLIYVGQKLTIPAASGNASSVASSSAAVDDAEAPKVR,not soluble
3,MDISVIDATKVNTETGLHIGESNAPVKMIEFINVRCPYCRKWFEESEELLAQSVKSGKVERIIKLFDKEKESLQRGNVMHHYIDYSAPEQALSALHKMFATQDEWGNLTLEEVATYAEKNLGLKEQKDATLVSAVIAEANAAHIQFVPTIIIGEYIFDESVTEEELRGYIEK,soluble
4,MDITKADEPVIDEKDYPKPSDAELKAKLTPLQYSVTQNKHTERSFSNEYWDNFQPGIYVDITTGEPVFSSNDKFESGCGWPSFTKPIIKDVVHYETDNSFNMQRTEVLSRAGNAHLGHVFDDGPKDKGGLRYCINSASIKFIPLAEMEKAGYGYLIQSIKK,not soluble
5,MDKEKVLDKIKKCLALGRSVNEHEAAQALRQAQALMEKYKVNAEDIALSKVSEQKADRKMAFKLAGWQWGVANMIADIFGCKSYQRGKTMMFYGIGNRAETSAYAFDVVYRQISADRRKFLKTCRAGKPSHRTYLADRFCGGWIASAWETVKKFEMSDEEKAIMDGYKKKEYPDMAEARTRDAKSSILQGSKMEYEALTRGMESGKQVKLHYAVNGTGFVKQIGGQT,not soluble
6,MDKEVTNIVLKRHDSIVKGAQDDREYRGLELTNGIRVLLVSDPTTDKSAAALDVKVGHLMDPWELPGLAHFCEHMLFLGTAKYPTENEYSKFLTDNAGHRNAVTASDHTNYHFDVKPDQLRGALDRFVQFFLSPQFTESATEREVCAVDSEHSNNLNNDLWRLSQVDRSLSKPGHDYAKFGTGNKKTLLEEARKKGVEPRDALLQFYKKWYSSNIMTCCIIGKESLDVLQSHLKTLEFDTIENKKVERKVWNENPYGPEQLGKRIDRKFFAHLIRHKGPGSLLVELKRLGWVNSLKSDSNTIAAGFGILNVTMDLSTGGLENVDEIIQLMLNYIGMLKSFGPQQWIHDELADLSDVKFRFKDKEQPMKMAINIAASLQYIPIEHILSSRYLLTKYEPERIKELLSTLTPSNMLVRVVSQKFKEQEGNTNEPVYGTEMKVTDISPEKMKKYENALKTSHHALHLPEKNEYIATNFGQKPRESVKNEHPKLISDDGWSRVWFKQDDEYNMPKQETKFALTTPIVSQNPRISLISSLWLWCFCDILSEETYNAALAGLGCQFELSPFGVQKQSTDGREAERHASLTLHVYGYDEKQPLFVKHLTSCMINFKIDRTRFEVLFESLKRTLTNHAFSQPYLLTQHYNQLLIVDKVWSKEQLLAVCDSVTLENVQGFAREMLQAFHMELFVHGNSTEKEAIQLSKELMDILKSAAPNSRPLYRNEHNPRREFQLNNGDEYIYRHLQKTHDAGCVEVTYQIGVQNKYDNAVVGLIDQLIKEPVFDTLRTNEALGYIVWTGCRFNCGAVALNIFVQGPKSVDYVLERIEVFLESVRKEIIEMPQDEFEKKVAGMIARLEEKPKTLSNRFKRFWYQIECRQYDFARREKEVKVLKSIGKDDVIALFDKKIRKNAVERRKLVVLVHGKIDDQETLNRIIKKNVESGKKEKEILNLDQLRQSLPVYDLPNAAIDLKPIGVDPLEQKESATVQ,not soluble
7,MDKMLEKFEGSILGLSIGDALGMPTEWFTKEEIAEKYGLIDNFVDPKNKFNGILKAGQYTDDTDQTIAILNSFDVRGFNNDIFIKELIKWYNNNPVGMGPTSTKAIEKLIEGDTTGCDSRTCGSSMRVGPLGLFYFGEYDKLKEITIKATKLTHNNDEAIAGALSIAFFVAESVNNVKSEKSIKRCAKFIEDVSYDFSEKILLINDLNSADEAYELFDTGLPAIECVPSAIATFLRTDTFKDGMISCVNAGGDTDSMGSMYGAIAGAYYGVLNIPELWIAGLQNKDLLVDLSKKLYKLRFKKLEHHHHHH,soluble
8,MDKVPQAVRDYLMEAHQLAAQWSLPNDRGDYINSKSIPIKSVAVIGGGTMGRGIAIAFCLSGFETYLVEVNNKAAEFCKNELEITYKREKAFRRLNDSKVEKLRKNLQITTDFQKLNNCDLIVEAVFEDMKLKKELFTKLDKICKPSCIFGTNTSSLDLNEMSSVLRDPTKVVGIHFFNPANLIRMVEVIYGSKTSSKAVATAFEACRSIKKLPVLVGNCPAFVFNRLLGVYLNQSQKLMYEYGYLPHQIDKIITNFGFLMGPLTVADMNGLDVMEKLKKENGWPASDFEKEVWRQKRYGRKTNKGYYKYDPNTHKKENDIEMEQLIRKFSSAASPNIQILNDQDAVNFLLYPMVNEGLLCIEEGIIHHESLIDIMFILGFGWPVATGGPMRFGWLQGIEKVASTIILWNSLEPNDRTYKVAATLQNVDRKNFAAKL,not soluble
9,MDLHSLCVDSHALRRDGMRFLHTADWQLGMTRHFLAGDAQPRYSAARRDAVAGLKALAADVGAEFVVVAGDVFEHNQLAPQIVGQSLEAMRVIGLPVYLLPGNHDPLDASSVYTSTLFRAERPDNVVVLDRAGVHEVRPGVQIVAAPWRSKAPTTDPVAEVLAGLPTDAAIRLLVAHGGVDALDPDHDKPSLIRLAALDDALTRQAIHYVALGDKHSLTQVGSSGRVWYSGAPEVTNFDDVEPDPGHVLVVDIDESDPRHPVTVDARRIGRWRFVTLHHQVDTSRDIADLDLNLDLMTDKDRTVVRLALTGSLTVTDRAALDTCLDKYARLFAWLGLWERHTDLAVIPVDAEFTDLGIGGFAAAAVDELVATARGGDDESAVDAQAALALLLRLADRGAALEHHHHHH,soluble
10,MDLTNGGVSPAATSAPLDWTTFRRVFLIDDAWRPLMEPELANPLTAHLLAEYNRRCQTEEVLPPREDVFSWTRYCTPDEVRVVIIGQNPYHHPGQAHGLAFSVRANVPPPPSLRNVLAAVKNCYPEARMSGHGCLEKWARDGVLLLNTTLTVKRGAAASHSRIGWDRFVGGVIRRLAARRPGLVFMLWGTHAQNAIRPDPRVHCVLKFSNPSPLSKVPFGTCQHFLVANRYLETRSISPIDWSV,soluble
11,MDMNEEYGLTPYETREILFYKTDNGEVRVEILLYQENLWLTQAKMAELFEVQKAAISKHLKNIFTSGELQEEAVVSKMETTAADGKRYNTSYYNLDAIIAVGYRVNSKKATMFRIWANRVLKEFIIKGYVMDDARLREPENLFGKDYFEEQLERIRDIRSSERRFYQKITDIYSQCSADYDVNSPVTKEFFATVQNKLHYAVTHHTAAEIVYGRADSTKPNMGLTTWKNAPQGRIRKSDVSIAKNYLNEEEMINLNEIVTMYLDYAERQARRGNIMYMQDWVNRLDAFLQFNEEDILHDKGKVTAAIAKAFAESEFEKFRVLQDRTYQSDFDRLVANIEENSKQTK,not soluble
12,MDNHDDKSKSDRFCDINNNMTTQFDRLSINSDASLVITSSRLAMQGADETSDWTPNKYSWFKLVTPNPVETRVVQQKAQMKGLKIHKMVHNFIPSRKQGYLGYYNFDVKSYEESEKARNLFPTDFVDAFCCQHLLGKNEQEFVFHAVNENDLKILCCIATYCKETKLDAPLDPMQHLNNLNLFYEAINNERAFIIMKDFMSDNGMKYLCRLKKDITDIRDRRNNN,not soluble
13,MDNKIMLRNRYISKIQNKLRDLTDSINFLSEIDQAILNQTAGAGPGAAGPGAAPDRSSTINLQALREKLTTLNTDDGPTRTAIRDKTAAIQTSIRDINLKLEELMKNINTSAGKLADAVSAIPTPTDDLGAAGAAGAAGAAGAAAGAGAGAA,not soluble
14,MDNSSQSKPSSSSSSHSPSPAAITPTQRTTRDSGLCSTIDIPEIQAQCIDNLNSHYLGKGTYGLVEKTRYRKTRQDDFRPAAIKYSSQLHMATLIREAKVMWDLRNHPNIIKIYGLYKSPRNGQGVVMEYMDCGSMADLLYDRTHINYTIDHVASWMFQLSSAVDFFHSNSQVHRDLKLQNMLLSDRYRTMKLCDFGTFTSMHQSMTSNRGTPITMAPEVFRCEQYNMKSDIYSIGIIMWQIIARNHPYRRDLSVPGLLYNVATANLRPQELECNPILSEFYKKCWNDNADIRPTSSECVEYFTLLKDEYPNGSVPLSDSSTNGPAETPPPHAHRPTMLGTSSGSGIGSNNRTPTASKLLNPQQPGQGHRRNRSETFVVQPDLPYPTVPGEAGASRIPKSQSEAKNFRDRAKSEQRQPHRDARPPPPFEHRRDSNDEEKHAVFMNICSNEETRPIDPDTRDEKSLEIFHQHCDNNKQYADAWVIKKEVMRAKHELIAQWPQHDHTVELLERKYYLEQEIARYRDIQDDNYFSTERM,not soluble
15,MDNSVMLDYLAVTIKGLAPDDVIEKILILPKDKFVLNEWGINKYQRHYSFSEIKVYFNKDWQSKMGVFIELRGQGCRQYEEYMENNVNNWVTLMKRISECHSNVTRLDIANDIFDDSLSVPLIYSYCKKQLCISTAKTFDYHEKSLLENGEKVGEMVTIGVRGTQQWCVYNKLLEQKLDQELPNTPLSWTRAELRCWQEKANLLAKQIKEGRPLKEIYFEVINGHYRFVSPRDKDSNRWRRKTVKWWNDYLETQEKTVLSVKRTKPTLKRSEKWTEKQVSRTLGKLYVAKAESHGQEKADSYIQHLLELGISKLTETDETDIQQYKQEQLSSAYWGIRKDDL,not soluble
16,MDNTNTGLKLFVLDTNILMHDPTAIYHFDEHDIYLPMVVLEELDSHKTGTSELARNVRQTNRMLVELMSNATHDQIVSGLPIPSYINSSNKKCSGRLFFQTDEFDQVVPSTLPGHKVDNTILATALGLQKKYYGKRQVIIISKDINLRIKAGILGIHAEDYYNDQVLDDVNLLHRGLHILDNNFWDSHAKDMGSWQESGKTFYKVSGPLVSQWNPNDCLSTEDDQFQALVKKIDGPNAVVQLIRDYTQPKHSVWGITARNREQNFSLNLLLDPDIDFVSLQGSAGTGKTLLTIAAGLTQVMDQNRYSEILMTRVTIPVGEDIGFLPGTEEEKMTPWMGALMDNLEVLHSSQVGGSFGRGATQDLLQNKIKIRSLNFMRGRTFLNRYIIIDEAQNLTSKQIKTLVTRAGPGSKIICLGDIKQIDTPYLTETTSGLTFAVDRFKSWEHSAHMTLTRGERSRLAFYAAEHL,not soluble
17,MDPLTGVPIRQEVPRLMERTFQENQAETYVLFLINLDRFKLVNDSLGEGYGDQVLQTLVRRLLWQLPNQQWIARVSGDEFIACAAIKGELPKKETLATYISSIIQQPFQVDEVQFTMTASIGAAVYPMDGKSVEMIWNSLERALRHAKARGGNCVSWFCQELKDEWIHPFRLENDLRRAVENQELEHHHHHH,soluble
18,MDQGPINRPHFFFTTAPMPCPYLEGHLERKMVTDLTGPEAERLHESLSRAGFRRSHTIAYAPVCPGCTACVPVRIRARAFVKNKSFRRIVRANAGVTAEYVPARATVEQFHLFSQYQQARHGESDMALMGFFDYRSMVEDSPISTSIAEFREAGGELVAACLIDHLSDGLSAVYSFFNTTLPQSRGLGTWMILWMVDETVRRDLDHVYLGYWIAESSKMAYKERFQPLEVFGRRGWIAFDERGRPGLEHHHHHH,not soluble
